Starred links: 1 amine or outer side, 2 acyl side, 3 side chain; linkers in the order of their positions; H or OH if unused. Non-standard residues stand in square brackets, D forms with d. Primed or numbered codes have the meaning given here. No end group written: not given here. Tyr(Me)″ = methylated tyrosine, COc1ccc(C[C@H](N[*:1])C(=O)[*:2])cc1; Tyr(3,5-I2) = N[C@@H](Cc1cc(I)c(O)c(I)c1)C(=O)O; dGla = N[C@H](CC(C(=O)O)C(=O)O)C(=O)O; Dap = NC[C@H](N)C(=O)O; βAla = NCCC(=O)O
T1: leptin receptor (ObR) naturally expressed on MCF-7 and DU-45 cells (human, UniProt P48357 22-1165)
T1 sequence (looked up): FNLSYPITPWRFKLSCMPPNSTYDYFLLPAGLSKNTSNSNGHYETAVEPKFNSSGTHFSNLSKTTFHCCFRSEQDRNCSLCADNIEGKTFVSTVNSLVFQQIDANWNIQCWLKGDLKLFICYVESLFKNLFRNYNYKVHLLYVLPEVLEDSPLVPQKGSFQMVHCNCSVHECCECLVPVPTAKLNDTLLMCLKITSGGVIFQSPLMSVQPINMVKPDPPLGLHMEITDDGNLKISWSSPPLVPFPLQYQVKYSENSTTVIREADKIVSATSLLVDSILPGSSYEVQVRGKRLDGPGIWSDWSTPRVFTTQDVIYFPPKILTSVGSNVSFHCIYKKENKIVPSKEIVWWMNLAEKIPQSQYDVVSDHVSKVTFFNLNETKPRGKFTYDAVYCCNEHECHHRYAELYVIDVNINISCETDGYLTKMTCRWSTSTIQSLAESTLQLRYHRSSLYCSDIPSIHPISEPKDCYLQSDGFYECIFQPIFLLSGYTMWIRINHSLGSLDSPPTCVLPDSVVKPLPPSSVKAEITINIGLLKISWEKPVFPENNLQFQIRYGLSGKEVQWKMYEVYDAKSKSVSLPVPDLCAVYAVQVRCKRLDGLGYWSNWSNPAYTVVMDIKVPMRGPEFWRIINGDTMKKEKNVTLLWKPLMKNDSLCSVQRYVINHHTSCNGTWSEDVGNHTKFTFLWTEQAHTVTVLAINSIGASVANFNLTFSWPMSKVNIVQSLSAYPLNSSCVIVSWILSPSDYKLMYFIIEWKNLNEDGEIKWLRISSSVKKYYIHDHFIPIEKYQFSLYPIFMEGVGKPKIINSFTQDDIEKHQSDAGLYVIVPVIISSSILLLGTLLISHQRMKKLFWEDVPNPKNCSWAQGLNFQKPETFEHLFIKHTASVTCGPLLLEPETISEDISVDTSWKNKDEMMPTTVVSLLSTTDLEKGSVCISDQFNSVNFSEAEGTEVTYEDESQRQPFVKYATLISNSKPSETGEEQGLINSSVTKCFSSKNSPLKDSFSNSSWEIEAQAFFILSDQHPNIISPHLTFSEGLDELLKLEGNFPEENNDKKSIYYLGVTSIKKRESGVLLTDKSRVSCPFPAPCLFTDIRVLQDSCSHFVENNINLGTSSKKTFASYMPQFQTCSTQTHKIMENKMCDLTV

T2: human IgG Fc-conjugated ObR extracellular domain (R&D Systems) (human, UniProt P48357 22-839)
T2 construct: extracellular domain; it was detected with an antibody specific for the N-terminus of human ObR; also called ObR extracellular fragment-human Fc chimera; extracellular domain of ObR; not shown: human IgG Fc
T2 sequence (looked up): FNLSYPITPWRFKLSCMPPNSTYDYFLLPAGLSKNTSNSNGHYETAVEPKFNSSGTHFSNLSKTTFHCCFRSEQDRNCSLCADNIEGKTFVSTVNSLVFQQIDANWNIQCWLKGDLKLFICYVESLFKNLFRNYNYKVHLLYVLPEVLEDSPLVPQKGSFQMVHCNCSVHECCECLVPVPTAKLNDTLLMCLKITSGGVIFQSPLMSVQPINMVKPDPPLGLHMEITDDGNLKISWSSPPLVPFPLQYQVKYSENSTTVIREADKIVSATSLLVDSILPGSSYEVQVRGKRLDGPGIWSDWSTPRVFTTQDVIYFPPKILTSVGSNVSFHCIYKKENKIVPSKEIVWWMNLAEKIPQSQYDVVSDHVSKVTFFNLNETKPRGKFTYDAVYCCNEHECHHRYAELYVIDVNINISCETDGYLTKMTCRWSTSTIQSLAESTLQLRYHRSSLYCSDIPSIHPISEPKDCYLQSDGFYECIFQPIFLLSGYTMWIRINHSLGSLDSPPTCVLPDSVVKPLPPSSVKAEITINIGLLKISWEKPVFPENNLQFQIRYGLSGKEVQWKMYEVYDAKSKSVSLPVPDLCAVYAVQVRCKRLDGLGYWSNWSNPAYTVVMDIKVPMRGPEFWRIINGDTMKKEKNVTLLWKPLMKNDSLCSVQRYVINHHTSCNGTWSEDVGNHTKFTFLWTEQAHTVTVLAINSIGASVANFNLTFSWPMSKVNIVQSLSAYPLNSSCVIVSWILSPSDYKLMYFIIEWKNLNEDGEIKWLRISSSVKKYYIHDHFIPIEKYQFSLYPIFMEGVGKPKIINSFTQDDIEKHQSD


What was measured:
[1] = biological target: leptin receptor (ObR) naturally expressed on MCF-7 and DU-45 cells (human) (UniProt P48357); experiment: cell-based or functional assay
[2] = biological target: T1, leptin receptor (ObR) naturally …; experiment: cell-based or functional assay
[3] = biological target: T2, human IgG Fc-conjugated ObR …; experiment: ELISA-type solid-phase binding assay, peptide on plate, ObR-Fc in solution
Method: For dot-blot and ELISA assays, the leptin fragments were dissolved in electroblot transfer buffer (25 mM Tris and […] buffer containing 20% methanol) and were applied to either a nitrocellulose membrane or dried upon ELISA plates (Otvos, L., Jr., and Szendrei, G. I. (1996) Enzyme-linked immunosorbent assay of peptides. In: Neuropeptide Protocols (G. B. Irvine and C. H. Williams, eds.). Humana Press, Totowa, N.J., pp. 269-275). The solid surfaces were blocked with 5% BSA in a PBS-0.5% Tween 20 buffer (PBST) for 3 hours at room temperature and were subsequently incubated with 10 μg/mL solution of human IgG Fc-conjugated ObR extracellular domain (R&D Systems) dissolved in Tris-buffered saline-0.1% Tween 20 buffer (TBST) containing 1% bovine serum albumin (BSA) for 1 hour. A monoclonal goat antibody (Santa Cruz Biotechnology), specific for the N-terminus of human ObR, was added to the assay mixture, followed by addition of a horseradish peroxidase(HRP)-conjugated anti-goat IgG donkey antibody for the dot-blot assay, and HRP-conjugated anti-goat Fc mouse antibody for ELISA assay (used at a 1:15,000 dilution in PBST and 1% BSA). Between reagents, the solid surfaces were washed extensively with PBST. After washing with PBST, the membrane was treated with a chemiluminescence luminol oxidizer (NEN) for 1 min. […] Optical absorbance values were read at 490 nm using a microplate reader. […]

[4] = biological target: T1, leptin receptor (ObR) naturally …; experiment: cell-based or functional assay; remark: listed apart in the source

Relative stimulation (%) of MCF-7 cells, with 10 nM leptin [2]	Molecule	further results
–	human leptin (R&D Systems) (from UniProt P41159 22-167)	MCF-7 cell growth (cell count, 5 days) [1]: 40%
-10%	G[Tyr(3,5-I2)]STEVV[βAla]LSRL-NH2 (N-terminus assumed; SMILES CC(C)C[C@H](NC(=O)[C@H](CCCNC(=N)N)NC(=O)[C@H](CO)NC(=O)[C@H](CC(C)C)NC(=O)CCNC(=O)[C@@H](NC(=O)[C@@H](NC(=O)[C@H](CCC(=O)O)NC(=O)[C@@H](NC(=O)[C@H](CO)NC(=O)[C@H](Cc1cc(I)c(O)c(I)c1)NC(=O)CN)[C@@H](C)O)C(C)C)C(C)C)C(N)=O) [A4 peptide]	–
–	VDKGSYLPRPTPPRPIYNRN (peptide, UniProt P37362 1-20, looked up, Negative control peptide; also called negative control antibacterial peptide pyrrhocoricin) [pyrrhocoricin]	binding result [3]: no binding
-3%	[Tyr(Me)″]STEVV[βAla]LSRL-NH2 (N-terminus assumed; SMILES COc1ccc(C[C@H](N)C(=O)N[C@@H](CO)C(=O)N[C@H](C(=O)N[C@@H](CCC(=O)O)C(=O)N[C@H](C(=O)N[C@H](C(=O)NCCC(=O)N[C@@H](CC(C)C)C(=O)N[C@@H](CO)C(=O)N[C@@H](CCCNC(=N)N)C(=O)N[C@@H](CC(C)C)C(N)=O)C(C)C)C(C)C)[C@@H](C)O)cc1) [A11 peptide]	–
-43%	[Tyr(Me)″]ST[dGla]VV[dA]LSRL-NH2 (N-terminus assumed; SMILES COc1ccc(C[C@H](N)C(=O)N[C@@H](CO)C(=O)N[C@H](C(=O)N[C@H](CC(C(=O)O)C(=O)O)C(=O)N[C@H](C(=O)N[C@H](C(=O)N[C@H](C)C(=O)N[C@@H](CC(C)C)C(=O)N[C@@H](CO)C(=O)N[C@@H](CCCNC(=N)N)C(=O)N[C@@H](CC(C)C)C(N)=O)C(C)C)C(C)C)[C@@H](C)O)cc1) [D12 peptide]	–
-15%	G[Tyr(3,5-I2)]ST[dGla]VV[dA]LSRL-NH2 (N-terminus assumed; SMILES CC(C)C[C@H](NC(=O)[C@H](CCCNC(=N)N)NC(=O)[C@H](CO)NC(=O)[C@H](CC(C)C)NC(=O)[C@@H](C)NC(=O)[C@@H](NC(=O)[C@@H](NC(=O)[C@@H](CC(C(=O)O)C(=O)O)NC(=O)[C@@H](NC(=O)[C@H](CO)NC(=O)[C@H](Cc1cc(I)c(O)c(I)c1)NC(=O)CN)[C@@H](C)O)C(C)C)C(C)C)C(N)=O) [F2 peptide]	–
–	[Tyr(3,5-I2)]S(β‑D‑glucose)TEVVALSRL[Dap](Ac)-NH2 [E1Free glycopeptide]	EC50 estimated from ERK1/2 stimulation in MCF-7 cells [4]: 100 to 150 nM

Reference: patent US20110015124A1 (TEMPLE UNIVERSITY OF THE COMMOMWEALTH SYSTEM OF HIGHER …, published 2011)
